How the values were obtained:
[1] = target: human OX40 extracellular domain fused to the Fc portion of human IgG1 (hOX40:hFc) (human); assay: ELISA, OX40L-FLAG binding to coated hOX40:hFc
[2] = target: human OX40 extracellular domain fused to the Fc portion of human IgG1 (hOX40:hFc) (human); assay: ELISA, blocking of OX40L-FLAG binding to coated hOX40:hFc
[3] = target: human OX40 (CD134), full length, expressed on cells (activated human T cells; EL4-OX40 and CHO-OX40 transfectants) (human) (UniProt P43489); assay: flow cytometry, blocking of OX40L-FLAG binding to activated human T cells
human OX40 (CD134), full length, expressed on cells (activated human T cells; EL4-OX40 and CHO-OX40 transfectants) (human), sequence (P43489 29-277 limits assumed): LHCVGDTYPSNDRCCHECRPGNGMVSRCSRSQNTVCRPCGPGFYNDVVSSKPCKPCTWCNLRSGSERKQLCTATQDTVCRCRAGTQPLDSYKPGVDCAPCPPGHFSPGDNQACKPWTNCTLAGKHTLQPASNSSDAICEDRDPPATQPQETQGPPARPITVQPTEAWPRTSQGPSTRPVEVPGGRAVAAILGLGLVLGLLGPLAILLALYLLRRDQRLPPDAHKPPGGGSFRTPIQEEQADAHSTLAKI

[4] = target: human OX40 (CD134), full length, expressed on cells (activated human T cells; EL4-OX40 and CHO-OX40 transfectants) (human) (UniProt P43489); assay: flow cytometry titration on activated human T cells
[5] = target: recombinant human OX40:mFc fusion protein (Alexis Corporation) (human) (UniProt P43489); assay: cross-blocking ELISA, hOX40:mFc pre-incubated with L106; competitor: coated 112V8
recombinant human OX40:mFc fusion protein (Alexis Corporation) (human), sequence (P43489 29-214): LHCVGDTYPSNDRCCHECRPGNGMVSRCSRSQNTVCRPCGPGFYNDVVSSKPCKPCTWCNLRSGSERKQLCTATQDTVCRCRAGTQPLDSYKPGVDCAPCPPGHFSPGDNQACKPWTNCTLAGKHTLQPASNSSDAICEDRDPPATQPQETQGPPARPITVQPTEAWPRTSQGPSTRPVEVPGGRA

[6] = target: recombinant human OX40:mFc fusion protein (Alexis Corporation) (human) (UniProt P43489); assay: cross-blocking ELISA, hOX40:mFc pre-incubated with L106; competitor: coated 112Y131
[7] = target: human OX40 (CD134), full length, expressed on cells (activated human T cells; EL4-OX40 and CHO-OX40 transfectants) (human) (UniProt P43489); assay: flow cytometry, OX40L-FLAG binding to activated human T cells

human OX40 extracellular domain fused to the Fc portion of human IgG1 (hOX40:hFc) (human), sequence (chain, as listed by the source limits assumed): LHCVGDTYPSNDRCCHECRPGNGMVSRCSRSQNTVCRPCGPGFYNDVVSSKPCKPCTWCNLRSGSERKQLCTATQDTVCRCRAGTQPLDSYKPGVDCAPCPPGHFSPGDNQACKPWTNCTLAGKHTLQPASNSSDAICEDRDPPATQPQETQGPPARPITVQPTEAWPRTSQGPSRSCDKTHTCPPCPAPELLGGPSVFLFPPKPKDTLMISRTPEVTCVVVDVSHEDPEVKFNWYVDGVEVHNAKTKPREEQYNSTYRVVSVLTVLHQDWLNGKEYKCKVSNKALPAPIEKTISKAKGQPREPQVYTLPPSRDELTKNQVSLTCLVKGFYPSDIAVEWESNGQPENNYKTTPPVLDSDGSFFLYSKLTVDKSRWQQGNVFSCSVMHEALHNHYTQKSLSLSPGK

mouse anti-human OX40 antibody L106 (Becton Dickinson, catalog number 340420)
percent inhibition of OX40L binding [1]: 95%
IC50 [2]: 0.982 mg/L
IC50 [3]: 60.9 mg/L
BMAX Geo Mean (geometric mean fluorescence) [4]: 52
Kd [4]: 1 nM
percent reduction of binding [5]: 10%
percent reduction of binding [6]: 10%
percent inhibition of OX40L binding [7]: 60%
